Laboratory results taken from US20230212549A1 (3B PHARMACEUTICALS, published 2023).
Numbered stars: 1 amine (or outer) side, 2 acyl side, 3 side chain; on linkers, the order of the positions; unused ones are H or OH. Bridge positions count the residues as written; N and C are the ends. Square brackets hold non-standard residues; d marks the D form. Primed or numbered codes have the meaning given here. * marks the point of attachment. tMeBn(DOTA-PP)″ = trimethylbenzylidene (tMeBn) bridge between the two Cys thiols, whose remaining connection point carries a DOTA chelator via a PP linker; mXylylene = c1cc(C[*:1])cc(C[*:2])c1; Pentanesulfonyl = CCCCCS(=O)(=O)*; 3Amb = NCc1cccc(C(=O)O)c1; 4Amb = NCc1ccc(C(=O)O)cc1; Hexanoyl = CCCCCC(=O)*; NH(CH2)5NH2 = NCCCCCN*

B1: Pentyl-SO2-[Cys(3MeBn)-Pro-Pro-Thr-Gln-Phe-Cys]-Asp-NH2 (peptide)
peptide: Pentanesulfonyl-CPPTQFCD-NH2
modifications: linker 1-7 via mXylylene
SMILES: CCCCCS(=O)(=O)N[C@H]1CSCc2cccc(c2)CSC[C@@H](C(=O)N[C@@H](CC(=O)O)C(N)=O)NC(=O)[C@H](Cc2ccccc2)NC(=O)[C@H](CCC(N)=O)NC(=O)[C@H]([C@@H](C)O)NC(=O)[C@@H]2CCCN2C(=O)[C@@H]2CCCN2C1=O
notes: also called 3BP-3514
B2: Hex-[Cys(tMeBn(InDOTA-AET))-Pro-Pro-Thr-Gln-Phe-AET] (peptide)
peptide: CPPTQFX
modifications: not fully specified; N-term Hex; X7 = AET; Cys1/AET7 thioether-cyclised via tMeBn(InDOTA-AET)
notes: also called 3BP-3713
B3: Hex-[Cys(tMeBn(DOTA-AET))-Pro-Pro-Thr-Gln-Phe-Cys]-asp-NH2 (peptide)
peptide: CPPTQFCD
modifications: N-term Hex; Cys1/Cys7 thioether-cyclised via tMeBn(DOTA-AET); D-Asp at 8; C-term amide
notes: also called 3BP-3681
B4: Hex-[Cys(tMeBn(GaDOTA-PP))-Pro-Pro-Thr-Gln-Phe-Cys]-Asp-NH2 (peptide)
peptide: Hexanoyl-CPPTQFCD-NH2
modifications: linker 1-7 via tMeBn(GaDOTA-PP); also: Ga complex (GaDOTA)
notes: also called 3BP-3592
B5: Hex-[Cys(3MeBn)-Pro-Pro-Thr-Gln-Phe-Cys]-Asp-Ape-NH-DOTA′ (peptide)
peptide: Hexanoyl-CPPTQFCD-{NH(CH2)5NH2-DOTA′}
modifications: linker 1-7 via mXylylene
notes: also called 3BP-3403
B6: Hex-[Cys(tMeBn(DOTA-AET))-Pro-Pro-Thr-Gln-Phe-Cys]-Gly-OH (peptide)
peptide: Hexanoyl-CPPTQFCG-OH
modifications: linker 1-7 via tMeBn(DOTA-AET)
notes: also called 3BP-3656
B7: Hex-[Cys(tMeBn(DOTA-AET))-Pro-Pro-Thr-Gln-Phe-Cys]-Ser-OH (peptide)
peptide: Hexanoyl-CPPTQFCS-OH
modifications: linker 1-7 via tMeBn(DOTA-AET)
notes: also called 3BP-3658
B8: Hex-[Cys(3MeBn)-Pro-Pro-Thr-Glu-Phe-Cys]-Asp-NH2 (peptide)
peptide: Hexanoyl-CPPTEFCD-NH2
modifications: linker 1-7 via mXylylene
SMILES: CCCCCC(=O)N[C@H]1CSCc2cccc(c2)CSC[C@@H](C(=O)N[C@@H](CC(=O)O)C(N)=O)NC(=O)[C@H](Cc2ccccc2)NC(=O)[C@H](CCC(=O)O)NC(=O)[C@H]([C@@H](C)O)NC(=O)[C@@H]2CCCN2C(=O)[C@@H]2CCCN2C1=O
notes: also called 3BP-3288
B9: Hex-[Cys(3MeBn)-Pro-Pro-Thr-Glu-Phe-Cys]-Asp-Mamb-Arg-NH2 (peptide)
peptide: Hexanoyl-CPPTEFCD[3Amb]R-NH2
modifications: linker 1-7 via mXylylene
SMILES: CCCCCC(=O)N[C@H]1CSCc2cccc(c2)CSC[C@@H](C(=O)N[C@@H](CC(=O)O)C(=O)NCc2cccc(C(=O)N[C@@H](CCCNC(=N)N)C(N)=O)c2)NC(=O)[C@H](Cc2ccccc2)NC(=O)[C@H](CCC(=O)O)NC(=O)[C@H]([C@@H](C)O)NC(=O)[C@@H]2CCCN2C(=O)[C@@H]2CCCN2C1=O
notes: also called 3BP-3324
B10: Hex-[Cys(tMeBn(InDOTA-PP))-Pro-Pro-Thr-Gln-Phe-Cys]-Asp-NH2 (peptide)
peptide: Hexanoyl-CPPTQFCD-NH2
modifications: linker 1-7 via tMeBn(InDOTA-PP); also: In complex (InDOTA)
notes: also called 3BP-3590
B11: Pentyl-SO2-[Cys(tMeBn(DOTA-PP))-Pro-Pro-Thr-Gln-Phe-Cys]-Asp-NH2 (peptide)
peptide: Pentanesulfonyl-CPPTQFCD-NH2
modifications: linker 1-7 via tMeBn(DOTA-PP)″
notes: also called 3BP-3692
B12: Hex-[Cys(3MeBn)-Pro-Pro-Thr-Glu-Phe-Cys]-Asp-Pamb-Arg-NH2 (peptide)
peptide: Hexanoyl-CPPTEFCD[4Amb]R-NH2
modifications: linker 1-7 via mXylylene
SMILES: CCCCCC(=O)N[C@H]1CSCc2cccc(c2)CSC[C@@H](C(=O)N[C@@H](CC(=O)O)C(=O)NCc2ccc(C(=O)N[C@@H](CCCNC(=N)N)C(N)=O)cc2)NC(=O)[C@H](Cc2ccccc2)NC(=O)[C@H](CCC(=O)O)NC(=O)[C@H]([C@@H](C)O)NC(=O)[C@@H]2CCCN2C(=O)[C@@H]2CCCN2C1=O
notes: also called 3BP-3301
B13: Hex-[Cys(tMeBn(LuDOTA-PP))-Pro-Pro-Thr-Gln-Phe-Cys]-Asp-NH2 (peptide)
peptide: Hexanoyl-CPPTQFCD-NH2
modifications: linker 1-7 via tMeBn(LuDOTA-PP); also: Lu complex (LuDOTA)
notes: also called 3BP-3591

These binders were tested against T1, Recombinant human FAP (R&D systems, #3715-SE) (human, UniProt Q12884 26-760) (assay: SPR (Biacore T200), FAP captured on anti-FAP antibody, single cycle kinetics).
T1 construct: bought; in SPR captured on immobilized anti-FAP antibody MAB3715; also called rhFAP; human recombinant FAP
T1 sequence (Q12884 26-760 limits assumed): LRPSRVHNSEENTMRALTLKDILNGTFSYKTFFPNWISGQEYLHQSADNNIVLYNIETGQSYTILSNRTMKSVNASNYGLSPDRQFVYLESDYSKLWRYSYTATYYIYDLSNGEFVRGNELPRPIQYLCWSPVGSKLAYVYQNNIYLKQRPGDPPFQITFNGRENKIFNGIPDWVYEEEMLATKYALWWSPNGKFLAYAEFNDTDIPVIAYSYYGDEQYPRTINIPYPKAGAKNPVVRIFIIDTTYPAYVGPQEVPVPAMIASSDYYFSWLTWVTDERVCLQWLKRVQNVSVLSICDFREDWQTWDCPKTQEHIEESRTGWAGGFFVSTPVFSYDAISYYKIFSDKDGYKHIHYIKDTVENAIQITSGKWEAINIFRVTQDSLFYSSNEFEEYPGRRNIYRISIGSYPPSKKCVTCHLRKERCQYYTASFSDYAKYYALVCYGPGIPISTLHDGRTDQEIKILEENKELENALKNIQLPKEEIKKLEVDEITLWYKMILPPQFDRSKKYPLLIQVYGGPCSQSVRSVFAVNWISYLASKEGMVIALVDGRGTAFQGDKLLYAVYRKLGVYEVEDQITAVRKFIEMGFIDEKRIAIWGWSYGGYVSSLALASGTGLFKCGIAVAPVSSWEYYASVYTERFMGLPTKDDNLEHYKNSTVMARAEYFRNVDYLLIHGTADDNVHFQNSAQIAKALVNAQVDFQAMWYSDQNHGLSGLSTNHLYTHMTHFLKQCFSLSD

Binder | pKD Category
B1 | > 8 pKD
B2 | > 8 pKD
B3 | > 8 pKD
B4 | > 8 pKD
B5 | > 8 pKD
B6 | > 8 pKD
B7 | > 8 pKD
B8 | > 8 pKD
B9 | > 8 pKD
B10 | > 8 pKD
B11 | > 8 pKD
B12 | > 8 pKD
B13 | > 8 pKD
